Experiments:
STAT 4 protein = target: T1, STAT 4 protein (UniProt Q14765 1-748, limits assumed); test: sandwich ELISA, STAT protein coated at 0.5 µg/mL
T1 sequence (looked up): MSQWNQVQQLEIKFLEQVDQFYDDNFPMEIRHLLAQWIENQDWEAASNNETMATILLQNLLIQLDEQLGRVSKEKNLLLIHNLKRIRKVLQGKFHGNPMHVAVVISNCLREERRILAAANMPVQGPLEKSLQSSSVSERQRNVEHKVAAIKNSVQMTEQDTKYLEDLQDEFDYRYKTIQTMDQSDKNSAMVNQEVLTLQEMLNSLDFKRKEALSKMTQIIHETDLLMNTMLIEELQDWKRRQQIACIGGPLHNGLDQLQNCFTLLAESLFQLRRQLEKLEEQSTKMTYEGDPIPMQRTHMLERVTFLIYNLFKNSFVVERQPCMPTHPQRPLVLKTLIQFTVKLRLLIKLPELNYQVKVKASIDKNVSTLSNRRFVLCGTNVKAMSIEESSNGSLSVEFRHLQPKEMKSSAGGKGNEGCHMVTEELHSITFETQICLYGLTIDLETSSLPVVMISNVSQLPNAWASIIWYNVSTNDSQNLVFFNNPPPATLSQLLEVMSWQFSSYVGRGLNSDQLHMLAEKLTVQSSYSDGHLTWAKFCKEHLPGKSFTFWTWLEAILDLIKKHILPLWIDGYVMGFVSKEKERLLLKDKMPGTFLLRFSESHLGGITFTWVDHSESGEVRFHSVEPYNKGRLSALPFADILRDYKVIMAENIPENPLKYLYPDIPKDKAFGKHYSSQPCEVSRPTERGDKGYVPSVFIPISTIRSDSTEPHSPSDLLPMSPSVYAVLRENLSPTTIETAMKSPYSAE

STAT 5a protein = target: T2, STAT 5a protein (UniProt P42229 1-794, limits assumed); test: sandwich ELISA, STAT protein coated at 0.5 µg/mL
T2 sequence (looked up): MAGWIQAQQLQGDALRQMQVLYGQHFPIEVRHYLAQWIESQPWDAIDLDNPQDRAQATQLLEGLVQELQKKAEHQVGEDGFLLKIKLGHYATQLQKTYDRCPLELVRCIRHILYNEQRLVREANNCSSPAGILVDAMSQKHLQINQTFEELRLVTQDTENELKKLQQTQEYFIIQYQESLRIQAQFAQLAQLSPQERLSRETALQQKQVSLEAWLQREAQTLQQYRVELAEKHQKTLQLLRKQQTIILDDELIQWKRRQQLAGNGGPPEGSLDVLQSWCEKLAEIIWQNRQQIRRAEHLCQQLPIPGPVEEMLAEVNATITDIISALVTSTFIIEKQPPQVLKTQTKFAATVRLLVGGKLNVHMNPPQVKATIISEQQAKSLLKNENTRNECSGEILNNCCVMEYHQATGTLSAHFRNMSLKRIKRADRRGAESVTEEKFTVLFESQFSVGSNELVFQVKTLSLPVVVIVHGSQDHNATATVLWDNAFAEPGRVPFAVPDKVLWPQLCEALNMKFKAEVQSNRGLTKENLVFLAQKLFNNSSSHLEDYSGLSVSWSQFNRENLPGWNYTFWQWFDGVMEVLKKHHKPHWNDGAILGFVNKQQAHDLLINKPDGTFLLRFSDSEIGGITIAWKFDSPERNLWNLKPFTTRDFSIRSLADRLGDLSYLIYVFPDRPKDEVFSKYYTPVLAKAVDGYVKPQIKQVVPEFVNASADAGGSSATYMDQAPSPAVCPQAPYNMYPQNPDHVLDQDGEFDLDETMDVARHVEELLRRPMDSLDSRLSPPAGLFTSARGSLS

Mean OD450 (STAT 4 protein): 3.67 OD450
Mean OD450 (STAT 5a protein): 3.32 OD450
B1: anti-STAT3 VHH13 (SEQ ID NO:3) sdAb (VHH)
VHH: HVQLVESGGGSVQAGGSLRLSCAASGANGGRSCMGWFRQVPGKEREGVSGISTGGLITYYADSVKGRFTISQDNTKNTLYLQMNSLKPEDTAMYYCATSRFDCYRGSWFNRYMYNSWGQGTQVTVSS

— patent US20170327598A1 (published 2017)
